Where two headings read alike, the source gives them in different places. Where a SMILES comes first, the peptide text is derived from it. Where no end group is shown, it is not given here. [ ]: non-standard residue; d: D form. The star is where a group is joined. DOTA = O=C(O)CN1CCN(CC(=O)O)CCN(CC(=O)*)CCN(CC(=O)O)CC1; Met(O2) = CS(=O)(=O)CC[C@H](N)C(=O)O; NS3/CN = chelator carrying 99mTc; 2Thi = N[C@@H](Cc1cccs1)C(=O)O
B1: NK-1 receptor (protein)
chain: MDNVLPVDSDLSPNISTNTSEPNQFVQPAWQIVLWAAAYTVIVVTSVVGNVVVMWIILAHKRMRTVTNYFLVNLAFAEASMAAFNTVVNFTYAVHNEWYYGLFYCKFHNFFPIAAVFASIYSMTAVAFDRYMAIIHPLQPRLSATATKVVICVIWVLALLLAFPQGYYSTTETMPSRVVCMIEWPEHPNKIYEKVYHICVTVLIYFLPLLVIGYAYTVVGITLWASEIPGDSSDRYHEQVSAKRKVVKMMIVVVCTFAICWLPFHIFFLLPYINPDLYLKKFIQQVYLAIMWLAMSSTMYNPIIYCCLNDRFRLGFKHAFRCCPFISAGDYEGLEMKSTRYLQTQGSVYKVSRLETTISTVVGAHEEEPEDGPKATPSSLDLTSNCSSRSDSKTMTESFSFSSNVLS

Legend:
[1] = format: in vitro ADME, human
Method: Stability tests of 2a–e compounds in CSF and HS were performed similarly to the previous one. The solution (0.1 mL) of isolated 2a–e radiobioconjugate in 0.1 M PBS buffer (pH 7.4), was added to 0.9 mL of CSF or HS and incubated at 37 °C. After specific time intervals (1, 2, 4 and 24 h), a small sample (0.1–0.2 mL) of the mixture was taken, mixed with ethanol (0.3–0.5 mL) and shaken vigorously to precipitate protein components as well as part of the tested radiobioconjugate bound to protein components. The sample was then centrifuged (14,000 rpm, 5 min) and the supernatant separated. The radioactivities of both supernatant and precipitate were measured using the well-type NaI(Tl) detector (Institute of Nuclear Chemistry and Technology, Warsaw, Poland). […]

[2] = Lipophilicity (logP), partition in n-octanol/PBS (pH 7.4); format: physicochemical
Method: The partition coefficient was measured for each compound in a biphasic system of n-octanol/PBS (pH 7.4). The biphasic mixture was shaken (vortex, 1 min) and then centrifuged (14,000 rpm, 5 min) before the organic (n-octanol) and aqueous (PBS, pH 7.4) phases were separated. The activity of each phase (corresponding to the content of radiobioconjugate) was determined by measuring γ-radiation, using a well-type NaI(Tl) detector. P was calculated as the ratio of activity in the organic versus aqueous phases (as an average value from at least three independent measurements). Immediately after the γ-radiation measurements, the aqueous phase was analyzed by HPLC (system 2) to determine whether the tested radiobioconjugate existed in the liquid phase in an unchanged form.

[3] = biological target: T1, NK-1 receptors expressed on glioblastoma cells (U373 MG) (Homo sapiens, UniProt P25103); experiment: Saturation binding studies on U373 MG cells; settings: 37 °C, 1.5 h, Scatchard analysis, mean ± SD of three experiments
T1 construct: host or cells: U373 MG (Uppsala) human glioblastoma astrocytoma cells
Method: To determine the affinity of selected radiobioconjugates: […] One day before the experiment, 8 × 10^5 cells/well were seeded in six-well plates. To determine total binding, different concentrations of peptides (15.3 pM to 100 nM) were added to the cells and incubated at 37 °C for 1.5 h. Cellular uptake was stopped by aspirating the reaction supernatant, followed by washing twice with 1 mL of cold PBS. Finally, the cells were lysed using 1 M NaOH to detach them from the well plates. To determine nonspecific binding, the cells were incubated with 1000-fold excess of unlabelled peptides. The radioactivities of collected samples with cell pellets and supernatants were measured using Perkin Elmer automatic γ-counter. The specific binding was obtained by subtracting nonspecific binding from total binding. For estimating the receptor density (Bmax) and the dissociation constant (Kd) of the receptor for the studied radiobioconjugates, the Scatchard analysis method was used. Results are means ±SD of three individual experiments.

[4] = biological target: [177Lu]DOTA-[Thi8,Met(O2)11]Substance P(1-11) 1-11 (Homo sapiens, UniProt P20366, 177Lu-DOTA, Thi8, Met(O2)11); experiment: radioligand binding
[5] = biological target: [177Lu]DOTA-[Thi8,Met(O2)11]Substance P(5-11) 5-11 (Homo sapiens, UniProt P20366, 177Lu-DOTA, Thi8, Met(O2)11); experiment: radioligand binding
[6] = biological target: [177Lu]DOTA-Substance P(4-11) 4-11 (Homo sapiens, UniProt P20366, 177Lu-DOTA); experiment: radioligand binding

Molecule	Enzymatic biomolecule biodegradation in human serum (ITLC) [1]	logP ([2]; pH 7.4)	Kd [3] [nM]	further results
CSCC[C@H](NC(=O)[C@H](CC(C)C)NC(=O)CNC(=O)[C@H](Cc1ccccc1)NC(=O)[C@H](Cc1ccccc1)NC(=O)[C@H](CCC(N)=O)NC(=O)[C@H](CCC(N)=O)NC(=O)[C@@H]1CCCN1C(=O)CN1CCN(CC(=O)O)CCN(CC(=O)O)CCN(CC(=O)O)CC1)C(N)=O [2c, [^177Lu]DOTA-SP(4–11), metal not drawn]	only partial	-2.93 ± 0.01	13.3 ± 1.6	–
[^99mTc]NS3/CN-SP(5–11) ({NS3/CN}-QQFFGLM; ends and bridges not checked; also: 99mTc complex of NS3/CN chelate; UniProt P20366 62-68, looked up, fragment) [1d, SP(5–11) labelled with technetium-99m via NS3/CN-BFCA]	–	1.14 ± 0.01	–	–
CSCC[C@H](NC(=O)[C@H](CC(C)C)NC(=O)CNC(=O)[C@H](Cc1ccccc1)NC(=O)[C@H](Cc1ccccc1)NC(=O)[C@H](CCC(N)=O)NC(=O)[C@H](CCC(N)=O)NC(=O)[C@@H]1CCCN1C(=O)[C@H](CCCCN)NC(=O)[C@@H]1CCCN1C(=O)[C@H](CCCNC(=N)N)NC(=O)CN1CCN(CC(=O)O)CCN(CC(=O)O)CCN(CC(=O)O)CC1)C(N)=O [2a, [^177Lu]DOTA-SP(1–11), metal not drawn]	only partial	-5.12 ± 0.06	–	–
[^99mTc]NS3/CN-SP(4–11) ({NS3/CN}-PQQFFGLM; ends and bridges not checked; also: 99mTc complex of NS3/CN chelate; UniProt P20366 61-68, looked up, fragment) [1c, SP(4–11) labelled with technetium-99m via NS3/CN-BFCA]	–	0.09 ± 0.02	–	–
[^99mTc]NS3/CN-[Thi^8,Met(O2)^11]SP(5–11) [1e]	–	0.64 ± 0.02	–	–
CSCC[C@H](NC(=O)[C@H](CC(C)C)NC(=O)CNC(=O)[C@H](Cc1ccccc1)NC(=O)[C@H](Cc1ccccc1)NC(=O)[C@H](CCC(N)=O)NC(=O)[C@H](CCC(N)=O)NC(=O)CN1CCN(CC(=O)O)CCN(CC(=O)O)CCN(CC(=O)O)CC1)C(N)=O [2d, [^177Lu]DOTA-SP(5–11), metal not drawn] ({DOTA}-QQFFGLM-NH2)	virtually all of the radiobiomolecule that was deposited onto the strip was degraded enzymatically	-2.68 ± 0.01	–	–
CC(C)C[C@H](NC(=O)CNC(=O)[C@H](Cc1cccs1)NC(=O)[C@H](Cc1ccccc1)NC(=O)[C@H](CCC(N)=O)NC(=O)[C@H](CCC(N)=O)NC(=O)CN1CCN(CC(=O)O)CCN(CC(=O)O)CCN(CC(=O)O)CC1)C(=O)N[C@@H](CCS(C)(=O)=O)C(N)=O [2e, [^177Lu]DOTA-[Thi^8,Met(O2)^11]SP(5–11), metal not drawn] ({DOTA}-QQF[2Thi]GL[Met(O2)]-NH2)	virtually all of the radiobiomolecule that was deposited onto the strip was degraded enzymatically	-3.94 ± 0.01	48.7 ± 5.1	–
CC(C)C[C@H](NC(=O)CNC(=O)[C@H](Cc1cccs1)NC(=O)[C@H](Cc1ccccc1)NC(=O)[C@H](CCC(N)=O)NC(=O)[C@H](CCC(N)=O)NC(=O)[C@@H]1CCCN1C(=O)[C@H](CCCCN)NC(=O)[C@@H]1CCCN1C(=O)[C@H](CCCNC(=N)N)NC(=O)CN1CCN(CC(=O)O)CCN(CC(=O)O)CCN(CC(=O)O)CC1)C(=O)N[C@@H](CCS(C)(=O)=O)C(N)=O [2b, [^177Lu]DOTA-[Thi^8,Met(O2)^11]SP(1–11), metal not drawn]	only partial	-5.28 ± 0.02	11.1 ± 2.7	–
[C-]#[N+]CCCC(=O)N[C@@H](CCCNC(=N)N)C(=O)N1CCC[C@H]1C(=O)N[C@@H](CCCCN)C(=O)N1CCC[C@H]1C(=O)N[C@@H](CCC(N)=O)C(=O)N[C@@H](CCC(N)=O)C(=O)N[C@@H](Cc1ccccc1)C(=O)N[C@@H](Cc1ccccc1)C(=O)NCC(=O)N[C@@H](CC(C)C)C(=O)N[C@@H](CCSC)C(N)=O [1a, [^99mTc]NS3/CN-SP(1–11), metal not drawn]	–	–	–	logP ([2]; n-octanol/PBS pH 7.4, [99mTc]NS3/CN-SP radiobioconjugates, read-out: logP): 0.26 ± 0.05
B1	–	–	–	Kd [4]: 11.1 nM; Kd [5]: 48.7 nM; Kd [6]: 13.3 nM
